From US20250066503A1, “CELL INJURY INDUCING THERAPEUTIC DRUG FOR USE IN CANCER THERAPY” (CHUGAI SEIYAKU KABUSHIKI KAISHA, priority 2016, published 2025)

Columns and labels:
human GPC3 = molecular target: T1, human GPC3 (human, UniProt P51654 25-563); experiment: SPR
T1 construct: range 25-563; soluble analyte; also called soluble human GPC3; glypican 3

[1] = molecular target: T2, soluble human CD3 epsilon chain (human, UniProt P07766 23-126); experiment: SPR
T2 construct: also called CD3ε
T2 sequence (P07766 23-126 limits assumed): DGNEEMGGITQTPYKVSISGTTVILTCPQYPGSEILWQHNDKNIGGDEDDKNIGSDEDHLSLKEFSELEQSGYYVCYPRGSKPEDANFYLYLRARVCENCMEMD

T1 sequence (P51654 25-563 limits assumed): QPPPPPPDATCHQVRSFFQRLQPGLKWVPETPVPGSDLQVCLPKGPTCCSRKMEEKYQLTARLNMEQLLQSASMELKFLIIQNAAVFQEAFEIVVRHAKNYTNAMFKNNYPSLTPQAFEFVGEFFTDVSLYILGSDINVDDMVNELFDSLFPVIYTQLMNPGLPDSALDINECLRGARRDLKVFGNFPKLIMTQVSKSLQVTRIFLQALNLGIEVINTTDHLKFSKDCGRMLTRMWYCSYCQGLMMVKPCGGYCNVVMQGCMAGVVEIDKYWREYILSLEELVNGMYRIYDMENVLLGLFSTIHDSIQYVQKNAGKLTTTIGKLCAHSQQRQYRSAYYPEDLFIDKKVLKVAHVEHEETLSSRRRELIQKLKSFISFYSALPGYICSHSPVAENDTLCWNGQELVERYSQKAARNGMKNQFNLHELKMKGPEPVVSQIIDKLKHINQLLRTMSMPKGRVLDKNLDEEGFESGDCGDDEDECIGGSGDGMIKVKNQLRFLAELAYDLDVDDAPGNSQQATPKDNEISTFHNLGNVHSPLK

Binder	Kd (human GPC3) [nM]	Kd [1] [nM]
CE115HA251-E22Hh/L0000-k0/GL4-E22Hk/H0610-E22L (bispecific antibody, human IgG1, kappa, L234A L235A, N297A, ERY22 format) heavy: QVQLVESGGGVVQPGRSLRLSCAASGFTFSNAWMHWVRQAPGKGLEWVAQIKAKSNNYATYYAESVKGRFTISRDDSKNSLYLQMNSLKTEDTAVYYCRYVHYYYYYGVDAWGQGTTVTVSSASTKGPSVFPLAPSSKSTSGGTAALGCLVKDYFPEPVTVSWNSGALTSGVHTFPAVLQSSGLYSLSSVVTVPSSSLGTQTYICNVNHKPSNTKVDKKVEPKSCDKTHTCPPCPAPEAAGGPSVFLFPPKPKDTLMISRTPEVTCVVVDVSHEDPEVKFNWYVDGVEVHNAKTKPREEQYASTYRVVSVLTVLHQDWLNGKEYKCKVSNKALPAPIEKTISKAKGQPREPQVYTLPPSRCELTKNQVSLSCAVKGFYPSDIAVEWESNGQPENNYKTTPPVLDSDGSFFLVSKLTVDKSRWQQGNVFSCSVMHEALHNHYTQKSLSLSPDYKDDDDK light: DIVMTQSPLSLPVTPGEPASISCRSSQSLVHSNRNTYLHWYQQKPGQAPRLLIYKVSNRFSGVPDRFSGSGSGTDFTLKISRVEAEDVGVYYCGQGTQVPYTFGQGTKLEIKRTVAAPSVFIFPPSDEQLKSGTASVVCLLNNFYPREAKVQWKVDNALQSGNSQESVTEQDSKDSTYSLSSTLTLSKADYEKHKVYACEVTHQGLSSPVTKSFNRGEC chain 1: DIVMTQSPLSLPVTPGEPASISCRSSQSLVHSNRNTYLHWYQQKPGQAPRLLIYKVSNRFSGVPDRFSGSGSGTDFTLKISRVEAEDVGVYYCSQNTHVPPTFGQGTKLEIKSSASTKGPSVFPLAPSSKSTSGGTAALGCLVKDYFPEPVTVSWNSGALTSGVHTFPAVLQSSGLYSLSSVVTVPSSSLGTQTYICNVNHKPSNTKVDKKVEPKSCDKTHTCPPCPAPEAAGGPSVFLFPPKPKDTLMISRTPEVTCVVVDVSHEDPEVKFNWYVDGVEVHNAKTKPREEQYASTYRVVSVLTVLHQDWLNGKEYKCKVSNKALPAPIEKTISKAKGQPREPQVCTLPPSRDELTKNQVSLWCLVKGFYPSDIAVEWESNGQPENNYKTTPPVLDSDGSFFLYSKLTVDKSRWQQGNVFSCSVMHEALHNHYTQKSLSLSPHHHHHHHH chain 2: QVQLVQSGAEVKKPGASVKVSCKASGYTFTDYEMHWIRQPPGQGLEWIGAIDGKTPDTAYSQKFKGRVTLTADKSTSTAYMELSSLTSEDTAVYYCTRFYSYTYWGQGTLVTVSSASVAAPSVFIFPPSDEQLKSGTASVVCLLNNFYPREAKVQWKVDNALQSGNSQESVTEQDSKDSTYSLSSTLTLSKADYEKHKVYACEVTHQGLSSPVTKSFNRGEC	0.236	13.7
CE115HA236-E22Hh/GLS3108-k0/GL4-E22Hk/H0610-E22L (bispecific antibody, human IgG1, kappa, L234A L235A, N297A, ERY22 format) heavy: QVQLVESGGGVVQPGRSLRLSCAASGFTFSNAWMHWVRQAPGKGLEWVAQIKAKSNNYATYYAESVKGRFTISRDDSKNSLYLQMNSLKTEDTAVYYCRYVHYYAYYGVQAWGQGTTVTVSSASTKGPSVFPLAPSSKSTSGGTAALGCLVKDYFPEPVTVSWNSGALTSGVHTFPAVLQSSGLYSLSSVVTVPSSSLGTQTYICNVNHKPSNTKVDKKVEPKSCDKTHTCPPCPAPEAAGGPSVFLFPPKPKDTLMISRTPEVTCVVVDVSHEDPEVKFNWYVDGVEVHNAKTKPREEQYASTYRVVSVLTVLHQDWLNGKEYKCKVSNKALPAPIEKTISKAKGQPREPQVYTLPPSRCELTKNQVSLSCAVKGFYPSDIAVEWESNGQPENNYKTTPPVLDSDGSFFLVSKLTVDKSRWQQGNVFSCSVMHEALHNHYTQKSLSLSPDYKDDDDK light: DIVMTQSPLSLPVTPGEPASISCRSSQSLVHSNRNTYLSWYQQKPGQAPRLLIYKVSNRFSGVPDRFSGSGSGTDFTLKISRVEAEDVGVYYCGQGTQVPYTFGQGTKLEIKRTVAAPSVFIFPPSDEQLKSGTASVVCLLNNFYPREAKVQWKVDNALQSGNSQESVTEQDSKDSTYSLSSTLTLSKADYEKHKVYACEVTHQGLSSPVTKSFNRGEC chain 1: DIVMTQSPLSLPVTPGEPASISCRSSQSLVHSNRNTYLHWYQQKPGQAPRLLIYKVSNRFSGVPDRFSGSGSGTDFTLKISRVEAEDVGVYYCSQNTHVPPTFGQGTKLEIKSSASTKGPSVFPLAPSSKSTSGGTAALGCLVKDYFPEPVTVSWNSGALTSGVHTFPAVLQSSGLYSLSSVVTVPSSSLGTQTYICNVNHKPSNTKVDKKVEPKSCDKTHTCPPCPAPEAAGGPSVFLFPPKPKDTLMISRTPEVTCVVVDVSHEDPEVKFNWYVDGVEVHNAKTKPREEQYASTYRVVSVLTVLHQDWLNGKEYKCKVSNKALPAPIEKTISKAKGQPREPQVCTLPPSRDELTKNQVSLWCLVKGFYPSDIAVEWESNGQPENNYKTTPPVLDSDGSFFLYSKLTVDKSRWQQGNVFSCSVMHEALHNHYTQKSLSLSPHHHHHHHH chain 2: QVQLVQSGAEVKKPGASVKVSCKASGYTFTDYEMHWIRQPPGQGLEWIGAIDGKTPDTAYSQKFKGRVTLTADKSTSTAYMELSSLTSEDTAVYYCTRFYSYTYWGQGTLVTVSSASVAAPSVFIFPPSDEQLKSGTASVVCLLNNFYPREAKVQWKVDNALQSGNSQESVTEQDSKDSTYSLSSTLTLSKADYEKHKVYACEVTHQGLSSPVTKSFNRGEC	0.267	6.08
GPC3_ERY27 (hCE115HA-E22Hh/L0000-k0/GL4-E22Hk/H0000-E22L) (bispecific antibody, human IgG1, kappa, L234A L235A, N297A, ERY22 format) heavy: QVQLVESGGGVVQPGRSLRLSCAASGFTFSNAWMHWVRQAPGKGLEWVAQIKAKSNNYATYYAESVKGRFTISRDDSKNSLYLQMNSLKTEDTAVYYCRYVHYGAYYGVDAWGQGTTVTVSSASTKGPSVFPLAPSSKSTSGGTAALGCLVKDYFPEPVTVSWNSGALTSGVHTFPAVLQSSGLYSLSSVVTVPSSSLGTQTYICNVNHKPSNTKVDKKVEPKSCDKTHTCPPCPAPEAAGGPSVFLFPPKPKDTLMISRTPEVTCVVVDVSHEDPEVKFNWYVDGVEVHNAKTKPREEQYASTYRVVSVLTVLHQDWLNGKEYKCKVSNKALPAPIEKTISKAKGQPREPQVYTLPPSRCELTKNQVSLSCAVKGFYPSDIAVEWESNGQPENNYKTTPPVLDSDGSFFLVSKLTVDKSRWQQGNVFSCSVMHEALHNHYTQKSLSLSPDYKDDDDK light: DIVMTQSPLSLPVTPGEPASISCRSSQSLVHSNRNTYLHWYQQKPGQAPRLLIYKVSNRFSGVPDRFSGSGSGTDFTLKISRVEAEDVGVYYCGQGTQVPYTFGQGTKLEIKRTVAAPSVFIFPPSDEQLKSGTASVVCLLNNFYPREAKVQWKVDNALQSGNSQESVTEQDSKDSTYSLSSTLTLSKADYEKHKVYACEVTHQGLSSPVTKSFNRGEC chain 1: DIVMTQSPLSLPVTPGEPASISCRSSQSLVHSNRNTYLHWYQQKPGQAPRLLIYKVSNRFSGVPDRFSGSGSGTDFTLKISRVEAEDVGVYYCSQNTHVPPTFGQGTKLEIKSSASTKGPSVFPLAPSSKSTSGGTAALGCLVKDYFPEPVTVSWNSGALTSGVHTFPAVLQSSGLYSLSSVVTVPSSSLGTQTYICNVNHKPSNTKVDKKVEPKSCDKTHTCPPCPAPEAAGGPSVFLFPPKPKDTLMISRTPEVTCVVVDVSHEDPEVKFNWYVDGVEVHNAKTKPREEQYASTYRVVSVLTVLHQDWLNGKEYKCKVSNKALPAPIEKTISKAKGQPREPQVCTLPPSRDELTKNQVSLWCLVKGFYPSDIAVEWESNGQPENNYKTTPPVLDSDGSFFLYSKLTVDKSRWQQGNVFSCSVMHEALHNHYTQKSLSLSPHHHHHHHH chain 2: QVQLVQSGAEVKKPGASVKVSCKASGYTFTDYEMHWIRQPPGQGLEWIGAIDPKTGDTAYSQKFKGRVTLTADKSTSTAYMELSSLTSEDTAVYYCTRFYSYTYWGQGTLVTVSSASVAAPSVFIFPPSDEQLKSGTASVVCLLNNFYPREAKVQWKVDNALQSGNSQESVTEQDSKDSTYSLSSTLTLSKADYEKHKVYACEVTHQGLSSPVTKSFNRGEC	4.28	61.6
